This is an account of results in US20260116960A1 (SHANGHAI HONGCHENG BIOPHARMACEUTICAL, published 2026).

For experiment [1], the target named is T1, human VEGF165-his protein (Acro, Catalog No. VE5-H5248) (human, UniProt P15692-4 27-191).
T1 construct: Bought protein; also called hVEGF165-His; VEGFA; not shown: his tag
The experiment in a line: ELISA, plate coated with human VEGF165-his. On the procedure:
ELISA was used to determine the activity of the trispecific antibodies binding to the PD-1 protein: 1 μg/mL human PD-1 protein (Acro, Catalog No.: PD1-H5221) was used to coat a high-adsorption 96-well ELISA plate and incubated at 4° C. overnight. On the next day, the plate was washed three times with PBST solution and blocked with 1% BSA-PBS solution at 37° C. for 1 hour. At the same time, 3-fold gradient dilutions of the antibody were prepared with 1% BSA-PBS solution, with a starting concentration of 10 nM. The antibodies of each gradient concentration were added to the blocked 96-well ELISA plate at 100 µL/well in triplicate and incubated at 37° C. for 1 hour. The plate was then washed three times with 0.05% PBST solution, and 100 μL/well of HRP-labeled secondary antibody (Sigma, Catalog No.: A0170) diluted at 1:5000 was added to the ELISA plate and incubated at 37° C. for 1 hour. The plate was washed three times with 0.05% PBST solution and developed with TMB. The absorbance of the 96-well ELISA plate at 450 nm was detected by an ELISA reader. The OD₄₅₀ value was fitted using a four-parameter model to calculate the EC₅₀ value of each antibody binding to PD-1.
The binding activity of the trispecific antibodies to VEGFA protein was detected by ELISA method as described in Section 2.1. The used human VEGF165-his protein was purchased from Acro, Catalog No.: VE5-H5248.
In general terms: An ELISA detects its analyte on a solid surface through an enzyme-linked reagent.

Experiment [2] concerns the target T2, human PD-1 on the cell surface (human, UniProt Q15116 25-288).
T2 construct: whole, on cells; also called cell surface PD-1
The experiment is described as follows: flow cytometry, 293T-hPD-1 cells, batch FACS#1. On the procedure: After centrifugation at 300 g for 5 minutes, the supernatant was discarded. The antibodies were serially diluted 3-fold with FACS buffer to obtain two gradient series solution FACS #1 and FACS #2, with the starting concentration of 200 nM (Table 5, FACS #1) or 100 nM (Table 5, FACS #2, FIG. 2), respectively. Then 100 μL/well was added to a 96-well plate in triplicate, mixed, and incubated at 4° C. for 60 min. The plate was centrifuged and washed three times with FACS buffer. 100 μL/well of 1:800 diluted AF647-anti-hIgG(H+L) (Jackson, Catalog No.: 109-605-003) was added and incubated at 4° C. for 50 minutes. After washing the plate three times with FACS buffer, 100 μL/well of FACS buffer was added to resuspend the cells, and the fluorescence signal was detected on a flow cytometer (BECKMAN COULTER cytoFLEX). The binding activity was fitted using a four-parameter model to calculate the EC₅₀ value of each antibody binding to PD-1.
In general terms: Flow cytometry measures light scatter and fluorescence of single cells or particles in a stream.

Experiment [3] deals with human PD-1 protein (Acro, PD1-H5257) (human, UniProt Q15116 25-167). The experiment in a line: competitive ELISA, PD-1 coated, biotin-PD-L1 as labelled ligand.
Experiment [4] concerns the target T2, human PD-1 on the cell surface. The experiment is described as follows: flow cytometry competition, 293T-hPD-1 cells, biotin-human PD-L1.
In experiment [5] the target is T3, human CTLA-4 on the cell surface (human, UniProt P16410 36-223).
T3 construct: whole, on cells; also called CHO-hCTLA-4 cells; CHOK1-hCTLA4 cells
The experiment is described as follows: flow cytometry, CHO-hCTLA-4 cells, batch FACS#4.

Experiment [6] addresses T4, Biotinylated Human VEGF165 (Acro, Catalog No. VE5-H82Q0) (human, UniProt P15692-4 27-191, biotinylated (site not stated)).
T4 construct: Bought protein; also called Biotinylated-hVEGF165; Biotin-hVEGF165
The experiment in a line: flow cytometry: antibody titrated on 293T-hPD-1 cells, then mixture of biotin-hVEGF165 and hCTLA4-mFc; PE streptavidin signal; VEGF signal after binding to cell surface PD-1. The method, then: 200 μL/well of the cells were added to a 96-well U-bottom plate. After centrifugation at 300 g for 5 minutes, the supernatant was discarded and 100 μL of antibody solution serially diluted with FACS buffer was added to each well in triplicate (with starting concentration of 200 nM, 3-fold serial dilution, and the same volume of FACS buffer was used as a negative control). Mixed well and incubated at 4° C. for 60 min. After washing the plate three times with FACS buffer, a mixture consisting of 1 μg/mL Biotin-hVEGF165 and 1 μg/mL hCTLA4-mFc (DIMA BIOTECH, Catalog No.: PME100017) in a 1:1 volume ratio was added to each well at 100 μL/well to detect the simultaneously binding activity of the trispecific antibodies to CTLA-4 and VEGF after binding to cell surface PD-1. […] After washing the plate three times with FACS buffer, 100 μL/well of PBS solution was added to resuspend the cells, and the fluorescence signal was detected on a flow cytometer (BECKMAN COULTER cytoFLEX). The binding activity was fitted using a four-parameter model, and the EC₅₀ value of each antibody was calculated.

T2 sequence (Q15116 25-288): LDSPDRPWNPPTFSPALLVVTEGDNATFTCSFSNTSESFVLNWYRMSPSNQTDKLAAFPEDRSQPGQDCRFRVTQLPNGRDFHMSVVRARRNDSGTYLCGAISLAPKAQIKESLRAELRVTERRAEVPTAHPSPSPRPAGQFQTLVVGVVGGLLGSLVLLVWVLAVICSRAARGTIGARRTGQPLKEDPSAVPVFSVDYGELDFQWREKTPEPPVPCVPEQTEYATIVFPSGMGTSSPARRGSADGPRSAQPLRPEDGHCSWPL
T1 sequence (P15692 other isoform, or with tags, fused parts or gaps limits assumed): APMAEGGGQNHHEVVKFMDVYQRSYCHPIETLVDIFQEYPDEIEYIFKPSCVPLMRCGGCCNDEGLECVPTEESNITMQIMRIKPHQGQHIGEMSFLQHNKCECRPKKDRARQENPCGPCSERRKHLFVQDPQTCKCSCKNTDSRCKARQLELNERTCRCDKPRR
Chain of human PD-1 protein (Acro, PD1-H5257) (Q15116 25-167 limits assumed): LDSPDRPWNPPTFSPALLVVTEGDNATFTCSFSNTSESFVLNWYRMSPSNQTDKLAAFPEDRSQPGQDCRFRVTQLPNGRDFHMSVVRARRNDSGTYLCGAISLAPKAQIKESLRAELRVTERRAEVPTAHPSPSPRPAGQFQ
T4 sequence (P15692 other isoform, or with tags, fused parts or gaps limits assumed): as the sequence (P15692 other isoform, or with tags, fused parts or gaps limits assumed) above
T3 sequence (P16410 36-223): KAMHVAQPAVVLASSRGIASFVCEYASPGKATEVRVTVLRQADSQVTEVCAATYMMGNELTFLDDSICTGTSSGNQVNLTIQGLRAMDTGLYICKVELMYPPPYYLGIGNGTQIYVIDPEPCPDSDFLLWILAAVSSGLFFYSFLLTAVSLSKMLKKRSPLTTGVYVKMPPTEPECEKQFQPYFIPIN

B1: HC010-F9 (trispecific antibody, human IgG4 S228P, kappa)
heavy: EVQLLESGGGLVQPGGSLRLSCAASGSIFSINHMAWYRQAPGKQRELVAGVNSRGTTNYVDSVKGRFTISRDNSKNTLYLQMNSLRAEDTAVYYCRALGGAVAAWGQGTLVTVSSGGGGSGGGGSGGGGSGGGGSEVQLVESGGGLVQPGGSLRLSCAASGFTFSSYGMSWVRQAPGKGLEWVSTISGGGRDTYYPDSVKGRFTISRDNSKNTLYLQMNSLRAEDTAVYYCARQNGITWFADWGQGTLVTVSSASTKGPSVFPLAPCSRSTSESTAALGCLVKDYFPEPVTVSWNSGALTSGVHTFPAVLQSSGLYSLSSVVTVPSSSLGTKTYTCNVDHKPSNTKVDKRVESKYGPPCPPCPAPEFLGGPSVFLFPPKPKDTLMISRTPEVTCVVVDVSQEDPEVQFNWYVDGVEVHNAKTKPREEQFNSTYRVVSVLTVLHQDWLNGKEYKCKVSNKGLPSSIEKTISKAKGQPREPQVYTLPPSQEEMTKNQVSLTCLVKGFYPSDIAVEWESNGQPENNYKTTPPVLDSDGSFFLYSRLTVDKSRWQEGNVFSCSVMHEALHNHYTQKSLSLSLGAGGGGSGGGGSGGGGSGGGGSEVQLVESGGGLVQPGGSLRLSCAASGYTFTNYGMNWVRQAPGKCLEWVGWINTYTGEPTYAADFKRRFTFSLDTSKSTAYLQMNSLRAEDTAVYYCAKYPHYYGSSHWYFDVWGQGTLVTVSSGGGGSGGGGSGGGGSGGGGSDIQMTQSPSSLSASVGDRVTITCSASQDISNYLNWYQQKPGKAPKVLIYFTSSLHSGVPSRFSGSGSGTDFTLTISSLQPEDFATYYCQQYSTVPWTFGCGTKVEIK
light: DIQMTQSPSSLSASVGDRVTITCRASESVDNYGISFMNWYQQKPGKAPKLLIYAASNQGSGVPSRFSGSGSGTDFTLTISSLQPEDFATYYCQQSKEVPWTFGGGTKVEIKRTVAAPSVFIFPPSDEQLKSGTASVVCLLNNFYPREAKVQWKVDNALQSGNSQESVTEQDSKDSTYSLSSTLTLSKADYEKHKVYACEVTHQGLSSPVTKSFNRGEC
notes: light: CQ1-3/1-11 VL-kappa; also called H010-F9
By EC50 is commonly meant the concentration needed to bring the measured effect to its halfway point. Broadly, the IC50 is the concentration needed to halve the response being measured. Lower therefore signals higher potency. Turning to B1, the 50% effective concentration (EC50) worked out at 0.111 nM in experiment [1] and 3.53 nM in experiment [2]. Besides, the half-maximal inhibitory concentration (IC50) in experiment [3] was determined as 0.923 nM; in experiment [4], 5 nM.

B2: HC010-F10 (trispecific antibody, human IgG4 S228P, kappa)
heavy: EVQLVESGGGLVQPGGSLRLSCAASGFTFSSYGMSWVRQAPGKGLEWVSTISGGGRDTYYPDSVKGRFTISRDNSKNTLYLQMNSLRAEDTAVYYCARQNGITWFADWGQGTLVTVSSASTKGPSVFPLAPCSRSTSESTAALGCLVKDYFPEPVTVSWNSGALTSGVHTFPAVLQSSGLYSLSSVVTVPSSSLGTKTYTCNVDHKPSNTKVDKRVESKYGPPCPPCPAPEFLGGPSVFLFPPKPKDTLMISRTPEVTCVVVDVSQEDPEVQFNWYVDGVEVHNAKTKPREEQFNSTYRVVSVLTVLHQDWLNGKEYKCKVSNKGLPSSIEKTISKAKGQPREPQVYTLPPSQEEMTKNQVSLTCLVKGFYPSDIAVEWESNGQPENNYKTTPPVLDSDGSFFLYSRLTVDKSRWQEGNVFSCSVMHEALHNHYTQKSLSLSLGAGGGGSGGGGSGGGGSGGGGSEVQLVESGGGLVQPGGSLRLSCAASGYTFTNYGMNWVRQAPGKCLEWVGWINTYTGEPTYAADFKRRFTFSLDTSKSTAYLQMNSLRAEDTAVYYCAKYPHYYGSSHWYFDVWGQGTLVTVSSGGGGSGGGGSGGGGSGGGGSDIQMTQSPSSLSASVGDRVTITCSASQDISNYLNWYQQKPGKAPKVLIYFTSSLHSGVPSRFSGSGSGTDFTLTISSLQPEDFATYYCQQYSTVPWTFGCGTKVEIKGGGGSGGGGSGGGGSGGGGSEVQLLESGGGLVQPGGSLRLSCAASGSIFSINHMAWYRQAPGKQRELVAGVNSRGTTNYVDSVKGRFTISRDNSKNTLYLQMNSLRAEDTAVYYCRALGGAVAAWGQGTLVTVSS
light: DIQMTQSPSSLSASVGDRVTITCRASESVDNYGISFMNWYQQKPGKAPKLLIYAASNQGSGVPSRFSGSGSGTDFTLTISSLQPEDFATYYCQQSKEVPWTFGGGTKVEIKRTVAAPSVFIFPPSDEQLKSGTASVVCLLNNFYPREAKVQWKVDNALQSGNSQESVTEQDSKDSTYSLSSTLTLSKADYEKHKVYACEVTHQGLSSPVTKSFNRGEC
notes: light: CQ1-3/1-11 VL-kappa; also called H010-F10
As to B2, the EC50 in experiment [1] was 0.121 nM; in experiment [2], 5.77 nM; in experiment [5], 4.86 nM; in experiment [6], 2.83 nM. Further, the half-maximal inhibitory concentration (IC50) in experiment [3] was 0.837 nM; in experiment [4], 4.5 nM.
